Measurements taken from patent US20110020369A1.

How the values were obtained:
hTSLPR-ECTO-His (human) = assay: ELISA, plate coated with TSLPR 50 ng/well, HRP goat anti-mouse detection
hTSLPR-Ig fusion (human) [1] = biological target: hTSLPR-Ig fusion (human) (UniProt Q9HC73); assay: SPR BIAcore T100, huTSLPR-hIg amine-coupled on CM5, antibody as analyte, bivalent analyte model, n = 2
hTSLPR-Ig fusion (human) [2] = biological target: hTSLPR-Ig fusion (human) (UniProt Q9HC73); assay: SPR BIAcore T100, huTSLPR-hIg amine-coupled on CM5, antibody as analyte, bivalent analyte model, n = 6

Chain of hTSLPR-Ig fusion (human) (Q9HC73 23-231): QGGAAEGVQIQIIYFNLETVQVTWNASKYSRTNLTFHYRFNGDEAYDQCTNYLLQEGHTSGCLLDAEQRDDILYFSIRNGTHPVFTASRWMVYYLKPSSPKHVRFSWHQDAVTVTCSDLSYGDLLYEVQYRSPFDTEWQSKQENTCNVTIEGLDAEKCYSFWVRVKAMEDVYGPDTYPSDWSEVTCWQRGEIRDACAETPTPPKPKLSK

B1: mouse anti-human TSLPR antibody 70E8 (antibody, mouse IgG1, V domains shown)
VH: DVQLQESGPDLVKPSQSLSLTCTVTNYSITSGYSWPWIRQFPGNKLEWLGYIHSSGRTNYNPSLKSRISITRDTSKNQFFLQLNSVTPEDTATYYCARSQLGLVFFAYWGQGTLVTVSA
VL: DIVMTQSQKFMSTSVGDRVSVTCKASQSVGANVAWYQQIPGHSPKVLIYSASYRFSGVPDRFTGSGSGTDFTLTISNVQSEDLAEYFCQQYNSYPYTFGGGTKLEIRR
B1 showed an EC50 (hTSLPR-ECTO-His (human)) of 0.0162 µg/mL, a Kd (hTSLPR-Ig fusion (human) [1]) of 79 pM and a koff (hTSLPR-Ig fusion (human) [1]) of 0.00012 s⁻¹. For the same binder, the kon (hTSLPR-Ig fusion (human) [1]) was 1.52e+06 M⁻¹ s⁻¹.

B2: rat anti-human TSLPR antibody 18B3 (antibody, V domains shown)
VH: EVQLVESGGGLVQPGRSLRLSCVASGFTFNNYWMTWVRQAPGKGLEWVASITDTSGRTYYPDSVKGRFTISRDHAKSTLYLQMNSLRPEDTATYYCTKTLGGIPRDWGQGVMVTVSS
VL: NIQLTQSPSLLSASVGDRVTLSCKGSQNINNYLAWYQQKLGEAPKLLIFKTNILQTGIPLRFSGSGSGTDYTLTISSLHCEDLATYYCYQFNNGFTFGPGTKLELKR
For B2, the Kd (hTSLPR-Ig fusion (human) [1]) was 8 pM, the koff (hTSLPR-Ig fusion (human) [1]) was 1.5e-05 s⁻¹ and the kon (hTSLPR-Ig fusion (human) [1]) was 1.81e+06 M⁻¹ s⁻¹.

B3: chimeric anti-human TSLPR 13H5 antibody (antibody, V domains shown, not shown: a dimerising Fc or GST)
VH: QVLLKQSGPSLVQPSQSLSITCTVSGFSLSRYGVHWVRQSPGKGLEWLGVIWRSGSTDYNAAFMSRLSITQDNSKSQVFFNMNSLQSDDSAIYYCAKKAFYVMDYWGQGTSVTVSS
VL: DIQMTQTTSSLSASLGDRVTISCRASQDISIYLNWYQQKPDGTVKLLIYYTSRLHSGVPSRFSGSGSGTNFSLTITNLEEEDIATYFCQQGNTLPWTFGGGTKLEIKR
Binder B3 has a Kd (hTSLPR-Ig fusion (human) [1]) of 102 pM, a koff (hTSLPR-Ig fusion (human) [1]) of 0.000136 s⁻¹ and a kon (hTSLPR-Ig fusion (human) [1]) of 1.34e+06 M⁻¹ s⁻¹.

B4: mouse anti human TSLPR antibody 13H5 (antibody, mouse IgG1, V domains shown)
VH: QVLLKQSGPSLVQPSQSLSITCTVSGFSLSRYGVHWVRQSPGKGLEWLGVIWRSGSTDYNAAFMSRLSITQDNSKSQVFFNMNSLQSDDSAIYYCAKKAFYVMDYWGQGTSVTVSS
VL: DIQMTQTTSSLSASLGDRVTISCRASQDISIYLNWYQQKPDGTVKLLIYYTSRLHSGVPSRFSGSGSGTNFSLTITNLEEEDIATYFCQQGNTLPWTFGGGTKLEIKR
B4 gave a Kd (hTSLPR-Ig fusion (human) [2]) of 37 pM, a koff (hTSLPR-Ig fusion (human) [2]) of 7.8e-05 s⁻¹ and a kon (hTSLPR-Ig fusion (human) [2]) of 2.12e+06 M⁻¹ s⁻¹. It also gave an EC50 (hTSLPR-ECTO-His (human)) of 0.0106 µg/mL.
